Source: publication PMC12151379, “The liprin-α/RIM complex regulates the dynamic assembly of presynaptic active zones via liquid–liquid phase separation” (PLOS Biology, 2025)

Target: the molecule itself
Test: SEC-MALS; 100 μl sample (individual proteins or mixture, up to 500 μM) on Superdex 200 Increase 10/300 GL in TBS

B1: liprin-α2_CC2 (residues 259–542) (domain or fragment, human, UniProt O75334 259-542, looked up)
chain: GSIDSTDETSQIVELQELLEKQNYEMAQMKERLAALSSRVGEVEQEAETARKDLIKTEEMNTKYQRDIREAMAQKEDMEERITTLEKRYLSAQRESTSIHDMNDKLENELANKEAILRQMEEKNRQLQERLELAEQKLQQTMRKAETLPEVEAELAQRIAALTKAEERHGNIEERMRHLEGQLEEKNQELQRARQREKMNEEHNKRLSDTVDRLLTESNERLQLHLKERMAALEEKNVLIQESETFRKNLEESLHDKERLAEEIEKLRSELDQLKMRTGSLIEP
notes: liprin-α2, human, GenBank AF034799.1, CC2 region, residues 259–542; Dimeric by SEC-MALS at 500 μM; source: E. coli BL21(DE3), purified (Ni-NTA, SEC)
For B1, the “stoichiometry N” value was 2.
